Where two headings read alike, the source gives them in different places. One block for each molecule: values may come before it.
Experiments:
[1] = biological target: Sec61α, N-terminally tagged with LgBiT (Oplophorus gracilirostris | not stated); assay: split reporter (BiFC, NanoBiT); bimolecular luminescence complementation in living HeLa cells, 96-well plate, 24 h after co-transfection of one LgBiT and one SmBiT fusion plasmid (50 ng each); furimazine added, signal 4 min later; RLU normalised to the LgBiT fusion plus Halo-CS set to 1; forskolin (15 µM) lowered the rPKA-cPKA signal; digitonin plus trypsin eliminated the signals
[2] = biological target: Sec61β, C-terminally tagged with LgBiT (not stated | Oplophorus gracilirostris); assay: as above
[3] = biological target: regulatory subunit of protein kinase A, C-terminally tagged with LgBiT (not stated | Oplophorus gracilirostris); assay: as above
[4] = biological target: regulatory subunit of protein kinase A, C-terminally tagged with LgBiT (not stated | Oplophorus gracilirostris); assay: split reporter (BiFC, NanoBiT); synthetic peptide complementation: HeLa cells expressing a LgBiT fusion, furimazine, then 0.002% digitonin, then synthetic peptide (scrambled, actin, SmBiT 1-100 µM; HaBiT up to 100 nM); signal 4 min after the peptide; RLU normalised to the scrambled peptide set to 1
[5] = biological target: Sec61α, N-terminally tagged with LgBiT (Oplophorus gracilirostris | not stated); assay: as above
[6] = biological target: Sec61α, C-terminally tagged with LgBiT (not stated | Oplophorus gracilirostris); assay: as above
[7] = biological target: TRAPα, C-terminally tagged with LgBiT (not stated | Oplophorus gracilirostris); assay: as above
[8] = biological target: Sec61β, C-terminally tagged with LgBiT (not stated | Oplophorus gracilirostris); assay: as above
[9] = biological target: TRAPβ, C-terminally tagged with LgBiT (not stated | Oplophorus gracilirostris); assay: as above
[10] = biological target: Sec61α, N-terminally tagged with LgBiT (Oplophorus gracilirostris | not stated); assay: as above; remark: listed apart in the source
[11] = biological target: Sec61α, C-terminally tagged with LgBiT (not stated | Oplophorus gracilirostris); assay: as above; remark: listed apart in the source
[12] = biological target: TRAPα, C-terminally tagged with LgBiT (not stated | Oplophorus gracilirostris); assay: as above; remark: listed apart in the source
[13] = biological target: Sec61β, C-terminally tagged with LgBiT (not stated | Oplophorus gracilirostris); assay: as above; remark: listed apart in the source
[14] = biological target: TRAPβ, C-terminally tagged with LgBiT (not stated | Oplophorus gracilirostris); assay: as above; remark: listed apart in the source
[15] = biological target: TRAPα, C-terminally tagged with LgBiT (not stated | Oplophorus gracilirostris); assay: split reporter (BiFC, NanoBiT); bimolecular luminescence complementation in living HeLa cells, 96-well plate, 24 h after co-transfection of one LgBiT and one SmBiT fusion plasmid (50 ng each); furimazine added, signal 4 min later; RLU normalised to the LgBiT fusion plus Halo-CS set to 1; forskolin (15 µM) lowered the rPKA-cPKA signal; digitonin plus trypsin eliminated the signals

Molecule: Sec63, N-terminally tagged with SmBiT (from UniProt Q9UGP8 1-760) (natural protein)
relative luminescence (RLU, Halo-CS control pair = 1) [2]: 202 RLU

Molecule: catalytic subunit of protein kinase A, C-terminally tagged with SmBiT (from UniProt P17612 1-351) (enzyme)
relative luminescence (RLU, Halo-CS control pair = 1) [3]: 613 RLU

Molecule: CVTGYRLFEEIL [synthetic SmBiT peptide (11 + 1 aa)]
luminescence relative to the scrambled peptide [10]: > 10 fold
luminescence relative to the scrambled peptide [11]: 2 RLU
luminescence relative to the scrambled peptide [12]: > 10 fold
luminescence relative to the scrambled peptide [13]: > 10 fold
luminescence relative to the scrambled peptide [14]: > 10 fold

B1: TRAPα, C-terminally tagged with SmBiT (natural protein)
chain: VLFRGGPRGLLAVAQDLTEDEETVEDSIIEDEDDEAEVEEDEPTDLVEDKEEEDVSGEPEASPSADTTILFVKGEDFPANNIVKFLVGFTNKGTEDFIVESLDASFRYPQDYQFYIQNFTALPLNTVVPPQRQATFEYSFIPAEPMGGRPFGLVINLNYKDLNGNVFQDAVFNQTVTVIEREDGLDGETIFMYMFLAGLGLLVIVGLHQLLESRKRKRPIQKVEMGTSSQNDVDMSWIPQETLNQINKASPRRLPRKRAQKRSVGSDE
relative luminescence (RLU, Halo-CS control pair = 1) [1]: 62 RLU

Second part, the molecule after the results:

relative luminescence (RLU, Halo-CS control pair = 1) [1]: 141 RLU
Molecule: Sec61β, N-terminally tagged with SmBiT (from UniProt P60468 1-96) (natural protein)

fold activity over the SmBiT peptide [4]: 10000 fold
luminescence relative to the scrambled peptide [5]: > 50 fold
luminescence relative to the scrambled peptide [6]: 15 RLU
luminescence relative to the scrambled peptide [7]: > 50 fold
luminescence relative to the scrambled peptide [8]: > 50 fold
luminescence relative to the scrambled peptide [9]: > 50 fold
Molecule: synthetic HaBiT peptide (high affinity variant of SmBiT)

relative luminescence (RLU, Halo-CS control pair = 1) [15]: 91 RLU
B2: TRAPβ, C-terminally tagged with SmBiT (natural protein)
chain: EEGARLLASKSLLNRYAVEGRDLTLQYNIYNVGSSAALDVELSDDSFPPEDFGIVSGMLNVKWDRIAPASNVSHTVVLRPLKAGYFNFTSATITYLAQEDGPVVIGSTSAPGQGGILAQREFDRRFSPHFLDWAAFGVMTLPSIGIPLLLWYSSKRKYDTPKTKKN
